Test results taken from article PMC8809517, “Cofactor-independent RNA editing by a synthetic S-type PPR protein”.

How the values were obtained:
Experiment in all cases: high-throughput RNA pulldown from lysate on Ni-NTA beads; HRP: 50 mM Tris pH 8, 150 mM NaCl, 1 mM beta-mercaptoethanol, 50 ug/ml BSA, 3 ug/ml yeast RNA, 0.5% heparin; ITC and FP: Tris pH 8, 200 mM KCl, 5% glycerol; MST: 50 mM Tris pH 8, 200 mM NaCl, 1 mM DTT, BSA, heparin, 0.05% Tween 20
Details in all cases: tags: N-terminal His-eGFP
[1] = target: T1, GFP-9S library array, motif 4 ND N98L;D124P (synthetic construct, N98L;D124P)
T1 chain: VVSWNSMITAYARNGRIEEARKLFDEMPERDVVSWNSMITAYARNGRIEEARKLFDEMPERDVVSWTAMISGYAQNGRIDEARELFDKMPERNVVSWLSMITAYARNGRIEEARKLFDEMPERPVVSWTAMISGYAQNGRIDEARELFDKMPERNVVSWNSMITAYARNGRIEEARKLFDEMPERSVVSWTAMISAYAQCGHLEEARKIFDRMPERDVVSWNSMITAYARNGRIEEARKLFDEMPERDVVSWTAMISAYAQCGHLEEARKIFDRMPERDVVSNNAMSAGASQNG

[2] = target: T2, GFP-9S library array, motif 4 ND N98M;D124S (synthetic construct, N98M;D124S)
T2 chain: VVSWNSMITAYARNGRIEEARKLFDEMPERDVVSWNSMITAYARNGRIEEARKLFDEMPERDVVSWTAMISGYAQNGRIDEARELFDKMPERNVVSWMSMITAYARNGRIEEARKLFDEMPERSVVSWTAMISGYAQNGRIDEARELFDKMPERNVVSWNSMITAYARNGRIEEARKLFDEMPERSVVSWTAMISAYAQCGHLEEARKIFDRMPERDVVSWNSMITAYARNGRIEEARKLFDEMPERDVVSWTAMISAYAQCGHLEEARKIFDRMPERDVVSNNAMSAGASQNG

[3] = target: T3, GFP-9S library array, motif 4 ND N98E;D124W (synthetic construct, N98E;D124W)
T3 chain: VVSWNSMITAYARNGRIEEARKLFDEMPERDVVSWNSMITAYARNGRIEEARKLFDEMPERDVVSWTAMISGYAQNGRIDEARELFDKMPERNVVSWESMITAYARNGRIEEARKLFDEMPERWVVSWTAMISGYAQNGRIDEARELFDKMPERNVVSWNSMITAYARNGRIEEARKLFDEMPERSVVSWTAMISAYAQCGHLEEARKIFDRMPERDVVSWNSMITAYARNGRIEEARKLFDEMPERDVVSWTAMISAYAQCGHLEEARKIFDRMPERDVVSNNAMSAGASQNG

[4] = target: T4, GFP-9S library array, motif 4 ND N98E;D124L (synthetic construct, N98E;D124L)
T4 chain: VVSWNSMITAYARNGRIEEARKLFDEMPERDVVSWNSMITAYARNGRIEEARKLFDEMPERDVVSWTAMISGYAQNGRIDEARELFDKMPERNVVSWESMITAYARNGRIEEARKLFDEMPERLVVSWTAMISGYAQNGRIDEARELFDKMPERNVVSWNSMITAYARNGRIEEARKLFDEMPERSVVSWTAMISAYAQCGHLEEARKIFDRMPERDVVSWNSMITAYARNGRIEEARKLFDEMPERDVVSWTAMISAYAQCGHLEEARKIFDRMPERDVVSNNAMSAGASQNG

[5] = target: T5, GFP-9S library array, motif 4 ND N98A;D124W (synthetic construct, N98A;D124W)
T5 chain: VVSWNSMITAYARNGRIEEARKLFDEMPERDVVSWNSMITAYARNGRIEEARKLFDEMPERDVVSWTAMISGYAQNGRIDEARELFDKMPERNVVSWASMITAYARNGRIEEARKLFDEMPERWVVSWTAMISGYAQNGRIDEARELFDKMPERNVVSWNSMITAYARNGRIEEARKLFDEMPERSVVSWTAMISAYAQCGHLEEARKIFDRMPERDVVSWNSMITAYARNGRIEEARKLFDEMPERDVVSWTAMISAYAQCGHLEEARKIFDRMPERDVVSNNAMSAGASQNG

AUUAGACGUGA (ssRNA) [Cy5-rpoA-G]
Kd ([1]; label: 5' Cy5): 114 nM | Kd ([2]; label: 5' Cy5): 73.1 nM | Kd ([3]; label: 5' Cy5): 198 nM | Kd ([4]; label: 5' Cy5): 69 nM | Kd ([5]; label: 5' Cy5): 104 nM

AUUAAACGUGA (ssRNA) [IR-rpoA-A]
Kd ([1]; label: 5' IRDye 800CW): 213 nM | Kd ([2]; label: 5' IRDye 800CW): 65.9 nM | Kd ([3]; label: 5' IRDye 800CW): 630 nM | Kd ([4]; label: 5' IRDye 800CW): 147 nM | Kd ([5]; label: 5' IRDye 800CW): 138 nM

AUUAUACGUGA (ssRNA) [IR-rpoA-U]
Kd ([1]; label: 5' IRDye 800CW): 145 nM | Kd ([2]; label: 5' IRDye 800CW): 48.4 nM | Kd ([3]; label: 5' IRDye 800CW): 648 nM | Kd ([4]; label: 5' IRDye 800CW): 196 nM | Kd ([5]; label: 5' IRDye 800CW): 149 nM

AUUACACGUGA (ssRNA) [Cy5-rpoA]
Kd ([1]; label: 5' Cy5): 97.7 nM | Kd ([2]; label: 5' Cy5): 50.4 nM | Kd ([3]; label: 5' Cy5): 213 nM | Kd ([4]; label: 5' Cy5): 63.1 nM | Kd ([5]; label: 5' Cy5): 129 nM
